In paper doi:10.1101/2024.04.28.591520:

Target: T1, Mycobacterium tuberculosis polyketide synthase 13 (Mycobacterium tuberculosis), I6X8D2
T1 chain: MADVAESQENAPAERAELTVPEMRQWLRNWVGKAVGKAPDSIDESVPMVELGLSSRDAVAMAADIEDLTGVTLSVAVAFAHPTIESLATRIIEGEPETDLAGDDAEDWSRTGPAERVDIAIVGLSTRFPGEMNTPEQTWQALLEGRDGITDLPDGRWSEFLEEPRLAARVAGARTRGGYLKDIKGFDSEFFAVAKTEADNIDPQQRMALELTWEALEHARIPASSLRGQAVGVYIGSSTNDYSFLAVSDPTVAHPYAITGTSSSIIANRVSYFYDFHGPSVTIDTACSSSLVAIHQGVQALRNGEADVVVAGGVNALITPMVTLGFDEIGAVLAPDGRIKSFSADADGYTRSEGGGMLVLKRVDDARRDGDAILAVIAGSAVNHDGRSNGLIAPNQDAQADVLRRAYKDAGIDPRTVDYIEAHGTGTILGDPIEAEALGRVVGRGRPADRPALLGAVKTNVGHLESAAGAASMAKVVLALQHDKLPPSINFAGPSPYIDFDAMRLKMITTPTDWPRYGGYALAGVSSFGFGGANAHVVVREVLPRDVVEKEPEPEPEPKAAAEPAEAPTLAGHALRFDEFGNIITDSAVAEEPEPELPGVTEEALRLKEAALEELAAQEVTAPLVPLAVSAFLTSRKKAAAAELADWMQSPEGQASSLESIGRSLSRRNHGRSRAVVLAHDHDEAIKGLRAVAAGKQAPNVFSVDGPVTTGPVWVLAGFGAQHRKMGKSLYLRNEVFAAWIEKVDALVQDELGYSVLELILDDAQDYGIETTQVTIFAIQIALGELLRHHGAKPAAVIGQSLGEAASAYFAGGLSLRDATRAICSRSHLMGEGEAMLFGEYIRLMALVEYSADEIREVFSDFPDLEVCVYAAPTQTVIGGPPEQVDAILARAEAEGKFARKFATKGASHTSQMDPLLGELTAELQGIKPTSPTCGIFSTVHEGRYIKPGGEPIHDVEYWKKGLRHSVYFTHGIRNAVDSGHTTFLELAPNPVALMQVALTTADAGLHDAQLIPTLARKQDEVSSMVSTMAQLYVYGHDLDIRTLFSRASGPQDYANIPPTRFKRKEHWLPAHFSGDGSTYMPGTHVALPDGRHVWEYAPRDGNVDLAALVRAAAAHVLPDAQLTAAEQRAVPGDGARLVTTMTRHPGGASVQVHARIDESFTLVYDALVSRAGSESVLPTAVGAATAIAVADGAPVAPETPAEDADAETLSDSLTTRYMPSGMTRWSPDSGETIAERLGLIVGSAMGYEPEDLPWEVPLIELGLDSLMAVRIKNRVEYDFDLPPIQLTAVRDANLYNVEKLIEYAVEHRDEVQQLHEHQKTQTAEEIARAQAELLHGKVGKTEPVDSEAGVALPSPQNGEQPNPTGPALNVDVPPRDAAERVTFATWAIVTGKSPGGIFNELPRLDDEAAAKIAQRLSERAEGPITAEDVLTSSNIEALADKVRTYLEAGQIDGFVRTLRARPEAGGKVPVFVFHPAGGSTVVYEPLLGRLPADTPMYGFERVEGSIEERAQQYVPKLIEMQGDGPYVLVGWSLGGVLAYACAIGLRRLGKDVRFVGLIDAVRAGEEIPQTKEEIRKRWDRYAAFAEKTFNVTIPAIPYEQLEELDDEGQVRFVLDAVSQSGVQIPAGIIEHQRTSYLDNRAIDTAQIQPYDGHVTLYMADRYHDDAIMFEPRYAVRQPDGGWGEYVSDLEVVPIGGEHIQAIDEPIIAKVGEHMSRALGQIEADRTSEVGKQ
Experiment: AUC
Details: remark: other sources report otherwise

B1: Mycobacterium tuberculosis polyketide synthase 13, I6X8D2 1-1733 (enzyme)
chain: T1 chain
- stoichiometry N: 2
